Among the data in patent publication US20060172958A1, “Phospholipid scramblase 3” (priority 2003, published 2006) are percentage of cardiolipin, proportion of sub-G1 cells, or the apoptotic population (propidium iodide) and percent of total cellular PKC-δ co-immunoprecipitated with PLS3 values, retold here.

Test [1] has as its target phospholipid scramblase 3 alpha (PLS3α) (human) (UniProt Q9NRY6). Briefly: cell-based or functional assay.
For test [2], the target named is phospholipid scramblase 3 (PLS3), human, isoform not stated (human) (UniProt Q9NRY6). Briefly: co-immunoprecipitation with PLS3 antibody, estimated against a PKC-δ blot (not shown).
Sequence of phospholipid scramblase 3 (PLS3), human, isoform not stated (human) (Q9NRY6 whole entry, canonical isoform): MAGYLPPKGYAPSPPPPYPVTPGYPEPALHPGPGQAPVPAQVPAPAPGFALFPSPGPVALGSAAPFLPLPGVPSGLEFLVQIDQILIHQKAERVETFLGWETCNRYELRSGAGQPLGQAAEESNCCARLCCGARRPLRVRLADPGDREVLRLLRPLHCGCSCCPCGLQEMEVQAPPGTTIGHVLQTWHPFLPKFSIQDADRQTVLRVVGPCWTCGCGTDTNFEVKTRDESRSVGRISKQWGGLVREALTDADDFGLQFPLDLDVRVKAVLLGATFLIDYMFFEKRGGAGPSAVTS

Sequence of phospholipid scramblase 3 alpha (PLS3α) (human) (Q9NRY6 other isoform, or with tags, fused parts or gaps limits assumed): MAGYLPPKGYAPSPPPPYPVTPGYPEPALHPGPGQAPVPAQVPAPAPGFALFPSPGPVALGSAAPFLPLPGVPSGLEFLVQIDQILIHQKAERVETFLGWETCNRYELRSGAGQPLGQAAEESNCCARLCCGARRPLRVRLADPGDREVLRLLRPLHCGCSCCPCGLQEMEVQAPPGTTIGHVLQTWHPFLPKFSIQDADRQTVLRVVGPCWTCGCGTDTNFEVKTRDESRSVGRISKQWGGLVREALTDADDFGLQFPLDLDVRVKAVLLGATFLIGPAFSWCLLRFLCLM

In test [1], “Bcl-B (untagged, from pcDNA-Bcl-B or pBcl-B-IRES-EGFP) (from UniProt Q9HD36 1-204)” came in with a percentage of cardiolipin at the outer membrane (shoulder of the NAO curve) of 50% and a proportion of sub-G1 cells, or the apoptotic population (propidium iodide) of 15.4%. “PKC-δ (cellular, HEK293 cells) (from UniProt Q05655 1-676) (enzyme)”: the percent of total cellular PKC-δ co-immunoprecipitated with PLS3 in test [2] is 5 to 10%.
